Assay results as given in patent US20240209382A1 (PURDUE RESEARCH FOUNDATION, published 2024).

Experiments:
[1] = target: the molecule itself; assay: TEM of capsid self-assembly, E. coli, transcript with TMV OAS (only disks without OAS)
[2] = target: the molecule itself; assay: TEM of capsid self-assembly

| Protein | binding result [1] | binding result [2] |
| --- | --- | --- |
| wild-type Barley stripe mosaic virus coat protein (BSMV-CP) (other, Capsid subunit expressed in E. coli; many copies assemble into disks or rod-shaped VLPs; Rods of the wild type were obtained from the transcript carrying the TMV origin of assembly (RNA); also called BSMV capsid protein; wildtype BSMV VLPs) MPNVSLTAKGGGHYIEDQWDTQVVEAGVFDDWWVHVEAWNKFLDNLRGINFSVASSRSQVAEYLAALDRDLPADVDRRFAGARGQIGSPNYLPAPKFFRLDKRTIAELTRLSRLTDQPHNNRDIELNRAKRATTNPSPPAQAPSENLTLRDVQPLKDSALHYQYVLIDLQSARLPVYTRKTFERELALEWIIPDAEEA | binds | – |
| BSMV-CP having point mutations at both residues E62Q and D101N (other, Capsid subunit expressed in E. coli; self-assembles into rod-shaped VLPs; also called E62Q/D101N; BSMV-CP-E62Q/D101N) MPNVSLTAKGGGHYIEDQWDTQVVEAGVFDDWWVHVEAWNKFLDNLRGINFSVASSRSQVAQYLAALDRDLPADVDRRFAGARGQIGSPNYLPAPKFFRLNKRTIAELTRLSRLTDQPHNNRDIELNRAKRATTNPSPPAQAPSENLTLRDVQPLKDSALHYQYVLIDLQSARLPVYTRKTFERELALEWIIPDAEEA | – | binds |
| BSMV-CP having a point mutation at residue E62Q (other, Capsid subunit expressed in E. coli; self-assembles into rod-shaped VLPs; also called BSMV-CP-E62Q) MPNVSLTAKGGGHYIEDQWDTQVVEAGVFDDWWVHVEAWNKFLDNLRGINFSVASSRSQVAQYLAALDRDLPADVDRRFAGARGQIGSPNYLPAPKFFRLDKRTIAELTRLSRLTDQPHNNRDIELNRAKRATTNPSPPAQAPSENLTLRDVQPLKDSALHYQYVLIDLQSARLPVYTRKTFERELALEWIIPDAEEA | – | binds |
| BSMV-CP having a point mutation at residue D101R (other, Capsid subunit expressed in E. coli; self-assembles into rod-shaped VLPs; also called BSMV-D101R; BSMV-D101R VLPs) MPNVSLTAKGGGHYIEDQWDTQVVEAGVFDDWWVHVEAWNKFLDNLRGINFSVASSRSQVAEYLAALDRDLPADVDRRFAGARGQIGSPNYLPAPKFFRLRKRTIAELTRLSRLTDQPHNNRDIELNRAKRATTNPSPPAQAPSENLTLRDVQPLKDSALHYQYVLIDLQSARLPVYTRKTFERELALEWIIPDAEEA | – | binds |
| BSMV-CP having a point mutation at residue D101N (other, Capsid subunit expressed in E. coli; self-assembles into rod-shaped VLPs; also called BSMV-CP-D101N) MPNVSLTAKGGGHYIEDQWDTQVVEAGVFDDWWVHVEAWNKFLDNLRGINFSVASSRSQVAEYLAALDRDLPADVDRRFAGARGQIGSPNYLPAPKFFRLNKRTIAELTRLSRLTDQPHNNRDIELNRAKRATTNPSPPAQAPSENLTLRDVQPLKDSALHYQYVLIDLQSARLPVYTRKTFERELALEWIIPDAEEA | – | binds |
